Target: JNKK (UniProt P45985)
Assay: cell-based or functional assay

Sequence of JNKK (P45985 whole entry): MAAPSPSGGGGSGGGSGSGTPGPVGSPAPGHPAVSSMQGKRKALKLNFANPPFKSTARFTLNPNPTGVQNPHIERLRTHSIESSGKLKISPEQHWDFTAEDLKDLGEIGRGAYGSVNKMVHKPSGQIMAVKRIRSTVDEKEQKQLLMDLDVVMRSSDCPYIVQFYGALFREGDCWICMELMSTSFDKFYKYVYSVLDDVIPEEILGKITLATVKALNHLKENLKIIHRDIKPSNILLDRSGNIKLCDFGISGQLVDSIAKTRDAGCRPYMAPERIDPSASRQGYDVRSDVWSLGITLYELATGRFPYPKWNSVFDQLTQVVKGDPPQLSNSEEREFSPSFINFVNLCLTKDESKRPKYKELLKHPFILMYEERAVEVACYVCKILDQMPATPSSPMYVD

## MEKK (enzyme)
  JNKK activation in COS cells cotransfected with MEKK expression vector (immune complex kinase assay with GST-JNK2) (ng expression vector): 125

Reference: patent publication US20040235112A1
